Reference: article PMC6538622 (Scientific Reports, 2019)

Target: the molecule itself
Experiment: SEC-SAXS; 5-10 mg/ml protein in 10 mM DTT, 10 mM MgCl2, 0.5 M NaCl, 20 mM Tris pH 8; KW403-4F size-exclusion column, B21 beamline (Diamond Light Source); molecular mass from I(0)

B1: Escherichia coli RNase E N-terminal catalytic domain (domain or fragment)
chain: not shown
notes: also called EcRNase E NTD; E. coli RNase E NTD
- stoichiometry N: 4
